{"source": "the nanobody polyreactivity screen of Harvey et al. (2022)"}
{"assay": "yeast display, Sf9 membrane polyspecificity reagent, FACS + sequencing; frameworks hold sequencing errors", "summary_of_the_method": "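Genes from sorted yeast were amplified by colony PCR, read by MiSeq 2 × 250 sequencing and filtered on CDR length. These cells carried a synthetic nanobody library in Saccharomyces cerevisiae BJ5465 and were sorted by FACS into low and high (top ~1%) gates on anti-HA and streptavidin fluorescence. Polyreactivity is labelled according to the gate of origin.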"}
{"sequence": "QVQLVESGGGLDQAGGSLRLSCAAYGGTLYYNAMGWYRQAPGKEREFVAAISSRGGRTYYADSVKGRFTISRDNAKNTVYLQMNSLKPEDTAVYYCAGSRTGRTYPSNRMYYWGQGTQVSVSS", "polyreactivity (PSR sort gate)": "high polyreactivity"}
{"sequence": "QDQHVESGGGLVQAGGSLRLSCDASGFIFTYYAMGWYRQAPGKERELVAAISRSGGNTYYADSVKGRFTISRDNAKNTVYLQMNSLIPEDTAVYYCAAETRRGGYWGYEYYYWGQGTQVTVSS", "polyreactivity (PSR sort gate)": "high polyreactivity"}
{"sequence": "QVQLEESGGGLVQAGGRLRLSCAASGRTFSTYAMGWYRQATGKERELVAAITRRGGSTSYADSVKGRFTISRDNANNTVYLQMNSLNPEDTAVYYCARENPGDSYYDYWGQGTQVTVSS", "polyreactivity (PSR sort gate)": "low polyreactivity"}
{"sequence": "QVQLVESGGGLVQAGGSLRLSCAASGSIVYRYSMGWYRQAPGKERELVAGITFGAGTYYADSVKGRFTISRDNAKNTVYLQMNSLKPEDTAVYYCNAIHLPRHRDYWGQGTQVTVSS", "polyreactivity (PSR sort gate)": "low polyreactivity"}
{"sequence": "QVQLVESGGGLVQEGGSLRLSCAATGSTFDANAMGWYRQAPGKERELVATISDGGSTNYADSVKGRFTISRDNAKNTVYLQMNSLKPEDTAVYYCAAVKLFLGLGYDYWGQGTQVTVSS", "polyreactivity (PSR sort gate)": "low polyreactivity"}
{"sequence": "QVKLQESGGGLVQAGGSLRLSCAASGNISVTGFMGLYRQAPGKERELVASIGIGGTTYYADSVKGRFSISRDNAKNTVYLQMNSLKPEDTAVYYCAGIYLYYAYSYWGQGTQVTVSS", "polyreactivity (PSR sort gate)": "low polyreactivity"}
{"sequence": "QVQLQESGGGLVQEGGSLRLRCAASRNISGSSDLGWYHQAPGKEREFVASITSGGTTYYADSVKGRFTISRDNAKNTVYLQMNSLKPEDTAVYYCAVGDPADAEFGYWGQGTQVTVSS", "polyreactivity (PSR sort gate)": "low polyreactivity"}
{"sequence": "QVQLVESAGGLVQAGGSLRLSCAASGSILPSNAMGWYRQATGKERELVAGLSERGSSTYYADSVKGRFTISRDNAKNTVYLQMNSLKPEDTAVYYCAADDVGRYWSSTHNWARGEYWGQGTHVTVSS", "polyreactivity (PSR sort gate)": "low polyreactivity"}
{"sequence": "QVQRVESGGGLVQAGGSLRLSSAGSGSIFNIYTMGWYRQAPGKERELVAAISYGGGSTYADSVKGRLTISRDNAKNTVYLQMNSLKPEDTAVYYCNAKRTYHWRWYQYDYWGQGTQVTVSS", "polyreactivity (PSR sort gate)": "high polyreactivity"}
{"sequence": "QVQLVESGGGLVQAGGSLRLSCAASGRTFDSNAMGWYRQAPGKERELVAAISGSGDTTYYADSVKGRFTISRDNAKNTVYLQMNSLKPEDTAVYYCAARWGRSSGGGDYWGQGTQVTVSS", "polyreactivity (PSR sort gate)": "low polyreactivity"}
{"sequence": "QVQLVESGGGLVQAGGSLRLSCAASGSTFITNAMGGYRQAPGKERELVATISRSGGRTYYADSVKGRFTISRDNAKNSVYLEMNSLNPEDTAVFYCAKRYGSKFEYWGLGTQVTVSS", "polyreactivity (PSR sort gate)": "high polyreactivity"}
{"sequence": "QVQLVESGGGLVQAGGSLSLSCAASGRILYSYAMGWYRQAPGKERELVASISLSGGRTYADSVKGRFTISRDNAKNTVYLQMNSLKPEDTAVYYCNARIRTSRYLWPFDYWGQGTQVTVSS", "polyreactivity (PSR sort gate)": "high polyreactivity"}
{"sequence": "QVQLVESGGGLVQAGGSLRLSCAASGNIFTSYAMGWYRQAPGKERELVAAISSGGRTSYADSVKGRFTISRDNAKNTVYLQMNSLKPEDTAVYYCAAYYRRWPREYYYWGQGTQVTVSS", "polyreactivity (PSR sort gate)": "high polyreactivity"}
{"sequence": "QVQIVESGGGLVQAGCSLRLSCAASGHTFTIKAMGWYRQAPGKERELVAAITFSGGRTYYADSVKGRFTISRDNAKNTVYLQMNSLKPEDTAVYYFAADNPGGSIYDYWGQGTQVNVSS", "polyreactivity (PSR sort gate)": "low polyreactivity"}
{"sequence": "QDQLVVSGGGLFQAVGSLRLICAASGIFRSYAMGWYRQAPGKERELVAAITGGASGTYYADSVKGRFTISRDNAKNTVYLQMNSLKPEDTAVYFCAAVNRVYFPFRLQVIYGSWGQGTQVTVSS", "polyreactivity (PSR sort gate)": "high polyreactivity"}
{"sequence": "QVQLVESGGGLVQAGGSLRLSCAASGSTFGYYAMGWYRHAPGKERELVAAISWRGGSTYYADSVKGRYTISRDNAKNTVYLQMISLKPEDTAVYYCAAPVGNYGSFDYWGQGTQVTVSS", "polyreactivity (PSR sort gate)": "low polyreactivity"}
{"sequence": "QVQLVESGGGLVQAGGSLRLSCAASGSTFYDYAMGWYRQAPGKERELVAGIRNGGSTNYADSVKGRFTISRDNAKNTVYLQMNSLIPEDTAVYYCAAPRWDGFYSYYRVVWGIFDYWGQGTQVTVSS", "polyreactivity (PSR sort gate)": "low polyreactivity"}
{"sequence": "QVQLVESGGGIVQAGGSLRLSCAASGRIFSFNTMVSYRQAPRKERELVAAITSSSARTYYADSVKGRFTISRDNAKNTVYLQMNSLKPEDTAVYYCATRDWVGSVRMGYWGQGTQVTVSS", "polyreactivity (PSR sort gate)": "high polyreactivity"}
{"sequence": "QVQRVETGGGLVQAGGSLRLSCAASGRTIRVYAMGWYRQPPGKETELVPAISGSGGSTYYADSVKGRFTISRDNAKNTVYLQMNSLKPEDTAVYFCYAASWTFQTTPKYDYWGQGTLVTVSS", "polyreactivity (PSR sort gate)": "high polyreactivity"}
{"sequence": "QVQLVESGGGLVQAGGPLRLSCAASGIIFGFYAMGWYRQPPGKERELVADITSSGGSTYYADSVKGRFTISRDNAKNTVYLQINSLKPEDTAVYYCAADGVPGGPPVEGMDYWGQGTQVTVSS", "polyreactivity (PSR sort gate)": "low polyreactivity"}
{"sequence": "QVQLVESGGGLVQAGGSLRLSCAASGSIFSLYAMGWYRQAPGKERELVAAITWTGGSTYYADSVKGRFTISRDNAKNTVYLQMNSLKPEDTAVYYCDARRVVYRYYWYSAYDYWGRGTQVTVSS", "polyreactivity (PSR sort gate)": "high polyreactivity"}
{"sequence": "QVQLVESGGGLVQAGGSLRLSCAASGITFGHYAMGWYRQAPGKERELVAAINFSGGSTYYADSVKGRFTISRDNAKNTVYLQMNSLKPEDTAVYYCAAKYSRSLRYPWYNYWGQGTQVTVSS", "polyreactivity (PSR sort gate)": "high polyreactivity"}
{"sequence": "QVQLVESGGGLVQAGGSLRLSCAASGSTFQFYAMGWYRQAPGKERELVAAISVSGDRTYYADSVKGRFTISRDNAKNTVYLQMNSLKPEDTAVYYCAARYGPFKRRFDYWGQGTQVTVSS", "polyreactivity (PSR sort gate)": "high polyreactivity"}
{"sequence": "QVQLVESGGGLVQAGGSLRLSCAASGRTLYRYAMGWYRQAPGKERELVAVISWNAVGTYYADSVKGRFTISRDNAKNTVYLQMNSLKPEDTAVYYCAARKRVASQGYIRYNYWGQGTQVTVSS", "polyreactivity (PSR sort gate)": "high polyreactivity"}
{"sequence": "QVQLVESGGGLVQAGGSLRLSCAASGFIFAKYVMGWYRQAPGKERELVAAISRSGGSTYYADSVKGRFTISRDNAKNTVYLQLNSLKPEDTAVYYCAADQTTTGGMDYWGQGTQITVSS", "polyreactivity (PSR sort gate)": "high polyreactivity"}
{"sequence": "QVQLVESGGGLVQAGGSLRLSCAASGRPFYKNTMGWYRQAPGKEREFVATISASGGSTYYADSVKGRFSSSRDNATNTVYLQMNSLKPEDTAVYYCAKRDYAGYAVHIGGDMNYWGQGTQVTVSS", "polyreactivity (PSR sort gate)": "low polyreactivity"}
{"sequence": "QVQLVESGGGLVQAGGSLRLSCAASGTTFDSYAMGWYRQAPGKERELVPAITSSASTNYADSVKGRFTISRDNAKNTVYLQMNSLKPEDNAVYYCYADAYRLSFGGFTSDDEFVYWGLGTQVTVSS", "polyreactivity (PSR sort gate)": "high polyreactivity"}
{"sequence": "QVQLVESGRGLVQAGGSLRLSCAASGSTFAGYVMGWYRQAPGKERELVAAISGRGGNTYYADSVKGRFTISRDNAKNTVYIQINSLKPADTAVYYCAANLSRRYGYWGQGTQVTVSS", "polyreactivity (PSR sort gate)": "high polyreactivity"}
{"sequence": "HVQLVESAGGLVQAGGRLSLSCAAYGSICDRYAMGWYRQAPGKEREKVAAIYSSGGRTYYADSVKGRFTISRDNAKNTVYLQMKSLKPEDTAVYYCNAEFWGGTPVAFSADYEYWGQGTQVTVSS", "polyreactivity (PSR sort gate)": "high polyreactivity"}
{"sequence": "QVQLVESGGGLVQAGGSLRLSCAASGSTFTYYAMGWYRQAPGKERELVADIDFSGTSTYYADSVKGRFTISRDNAKNTVYLQMNSLKPEDTAVYYCATDDYNWFDYDYWGQGTQVTVSS", "polyreactivity (PSR sort gate)": "low polyreactivity"}
{"sequence": "QVQLVESGGGLVQAGGSRRLSCAASGSTFSDYAMGWYRQAPGKERELVAAISSSGGRTYYADSVKGRFTISRDNAKNTVYLQMNSLNPEDTAVYYCNARGYARGVSTGYDFWGQGTQVTVSS", "polyreactivity (PSR sort gate)": "high polyreactivity"}
{"sequence": "QVQLVESGGGLVQAGGSLRLSCAASGFIFWHYAMGWYRQAPGKERELVAAISWSGGRTYYADSVKGRFTISRDNAKNTVYLQMNSLKPEDTAVYYCARSKRVTPYEYDYWGQGTQVTVSS", "polyreactivity (PSR sort gate)": "high polyreactivity"}
{"sequence": "QVQLVESGGGLFQAGGSLRLSCAASGSIFVGYAMGWYRQAPGKERELVAAITNSGGRTYYADSVKGRFTISRDNAKNTVYLQMNSLKPEDTAVYYCNRVTGKYRYWVGFEYWGQGTQVTVSS", "polyreactivity (PSR sort gate)": "high polyreactivity"}
{"sequence": "QVQHVESGGGLLQPGGSLRLSCAASGSTFRTNAMGWYRQAPGKERELVAAISRSTGSTYYADSVKGRFTISRDNAKNTVYLQMNSLKTVDSAVFYCNALSGFWGQGTQVTVSS", "polyreactivity (PSR sort gate)": "low polyreactivity"}
{"sequence": "QVQLVESGGGLVQAGGSLRLSCAASGSIFSTYAMGWYRQAPGKERELVAAISQGGSSTYYADSVKGRFTISRDNAKNTVYLQMNSLKPEDTAVYYCATPYSWYHRVYGYDYWGQGTQVTVSS", "polyreactivity (PSR sort gate)": "high polyreactivity"}
{"sequence": "QVQLVESGGGLVQAGGSLRLSCAASGRTFVSYDMGWYRQAPGKERELVATISWTAGSTYYADSVKGRFTISRDNAKNTVYLQMNSLKPEDTAVYYCAADVFYSIYDYWGQGTQVTVSS", "polyreactivity (PSR sort gate)": "low polyreactivity"}
{"sequence": "QVQLVESGGVLVQAGGSLRLSCAASGIIYYGYAMGWYRQAPRKERELVAAISRSGGSTYYADSVKGRFTISRDNAMNTVYFLMNSLKPEDTAVYYCAALVRTTSSYRYNFWGQGTQVTVSS", "polyreactivity (PSR sort gate)": "high polyreactivity"}
{"sequence": "QVQLAESGGGLVQAGGSLRLSCAASGRIFAFYAMGWYRQAPGKERELVAIISSAGRPYYADSVKGRFTISRDNAKYTVYLQMNSLKREDTAVYYCAAGGRARTYYYWGQGTQVTVSS", "polyreactivity (PSR sort gate)": "high polyreactivity"}
{"sequence": "QVQHVESGGGLVQAGGSLRLSCAASGSIFAYYAMGWYRQAPGKERELVAAISYRGGSTYYADSVKGRFTISRDNAKNTVYLQMNSLKPEDTAVYYCNAGGRRRIFAHSSTGDYWGQGTQVTVSS", "polyreactivity (PSR sort gate)": "high polyreactivity"}
{"sequence": "QVQVVESGGGLVQAGGSLRLSCAASGSTFSWYAIGWYIQAPGKDRELVARISSGDRTNYADSVKGRFTITRDNAKNNVYLEMNSQKPEDTAVYYCNADYGQPSYYDDGDYWGQGTQVTVSS", "polyreactivity (PSR sort gate)": "low polyreactivity"}
{"sequence": "QVQLLESGGGLVQAGGSLRLSCAASGRTIRNNTMGWYRQAPGKERELVARITWSGGSTYYADSVKGRFTISRDNAKNNVYLKMNRLKQEDTAVYYCAAVPILVYLWFQSYTGDYDYWGQGTQVTVSS", "polyreactivity (PSR sort gate)": "low polyreactivity"}
{"sequence": "QVQLVESGGGLVQAGGSLRLSCAASGGTFGKYTMGWSRQAPGKERELVAAINKSGGSTYYADSVKGRFTISRDNAKNTVYLQMNSLKPEDTAVYYCAAGTYFLSREYNYWGQGTQVTVSS", "polyreactivity (PSR sort gate)": "low polyreactivity"}
{"sequence": "QVQLVESGGGLVQAGGSLRLSCAASGRIGKYAMGWYRQAPGKERELVATISSTGTTNYADSVKGRFTISRDNAKNTVYLKMNSLKPEDTAVYYCAARWEYVGYRRRYYRFDYWGQGTQVTVSS", "polyreactivity (PSR sort gate)": "high polyreactivity"}
